Measured values as given in paper PMC3168947 (Molecular cell, 2011).
“And” between values parts separate entries of the source, which are not always exact repeats. Equal entries are not always repeated. Where two headings read alike, the source gives them in different places. No end group written: not given here.

Tests used:
[1] = target: ClpA6 (Escherichia coli, UniProt P0A8Q6+P0ABH9, C101S/C73V/E96C); type: binding, E. coli; settings: for ClpA6 bound ClpS*^F more tightly, fold: excess peptide, compared with […] peptide or absence of ligand; for Kapp of ClpA6 for ClpS*^F in presence of peptide: fluorescence anisotropy, 200 nM ClpS*^F, 20 μM peptide, ATPγS, Fig. 3A
[2] = target: fluorescent N-end-rule peptide …-fl; experiment: fluorescence polarisation
[3] = target: ClpS*^F variant with NTE deletion (E. coli); experiment: fluorescence polarisation
[4] = system: ClpAP; experiment: ClpAPS degradation of YLFVQELA-GFP; type: biochemical, E. coli; settings: for K2 (unimolecular engagement step, global fit): YLFVQELA-GFP degradation, Vmax = Etotal•kdeg/(1+K2), KM = K1•K2/(1+K2); for K2 (unimolecular engagement step, global fit) / steady-state degradation kinetics, in words / reduction in Vmax compared to ClpS, fold: Fig. 4B; for steady-state degradation kinetics, in words / reduction in Vmax compared to ClpS, fold: 100 nM ClpA6, 200 nM ClpP14; for steady-state degradation kinetics, in words: 600 nM ClpS or variants; for reduction in Vmax compared to ClpS, fold: 600 nM ClpS variant
[5] = target: T1, fluorescent N-end-rule peptide LLYVQRDSKEC-fl; experiment: fluorescence polarisation
T1 peptide: LLYVQRDSKEC(fluorescein maleimide)

[6] = target: T2, ClpA6 (hexameric ClpA unfoldase, stabilised by ATPγS) (E. coli, UniProt P0ABH9 1-758); experiment: fluorescence polarisation
T2 sequence (looked up): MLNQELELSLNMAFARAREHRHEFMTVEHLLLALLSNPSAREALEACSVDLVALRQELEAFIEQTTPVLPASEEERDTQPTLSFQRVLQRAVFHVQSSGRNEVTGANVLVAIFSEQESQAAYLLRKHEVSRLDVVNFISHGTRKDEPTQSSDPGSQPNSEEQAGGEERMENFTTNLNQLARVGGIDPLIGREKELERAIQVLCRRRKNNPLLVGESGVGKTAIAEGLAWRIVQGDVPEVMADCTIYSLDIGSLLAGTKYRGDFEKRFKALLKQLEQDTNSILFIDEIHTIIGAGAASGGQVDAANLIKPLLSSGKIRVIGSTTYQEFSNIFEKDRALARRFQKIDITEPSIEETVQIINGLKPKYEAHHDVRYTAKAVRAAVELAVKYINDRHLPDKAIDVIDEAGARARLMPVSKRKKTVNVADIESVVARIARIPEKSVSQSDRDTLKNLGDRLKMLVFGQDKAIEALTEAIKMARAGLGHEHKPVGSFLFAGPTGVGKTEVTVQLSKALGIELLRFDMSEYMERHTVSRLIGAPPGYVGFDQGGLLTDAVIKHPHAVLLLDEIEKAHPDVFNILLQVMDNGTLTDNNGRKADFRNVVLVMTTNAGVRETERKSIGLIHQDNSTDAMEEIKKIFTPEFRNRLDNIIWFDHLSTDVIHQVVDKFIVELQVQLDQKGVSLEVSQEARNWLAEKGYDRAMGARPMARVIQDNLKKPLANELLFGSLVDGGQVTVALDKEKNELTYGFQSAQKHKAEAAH

[7] = target: T2, ClpA6 (hexameric ClpA unfoldase, …); experiment: fluorescence polarisation; remark: listed apart in the source

Phe-Val [FV]
ClpA6 bound ClpS*^F more tightly, fold [1]: at least 9 fold | Kapp of ClpA6 for ClpS*^F in presence of peptide [1]: < 20 nM

Trp-CONH2
ClpA6 bound ClpS*^F more tightly, fold [1]: at least 9 fold

ClpS in complex with the ClpA N domain (from UniProt P0A8Q6 1-106)
Kd [2]: 3000 nM

MLYVQRDSKEC
Kapp of ClpA6 for ClpS*^F in presence of peptide [1]: ~ 180 nM

B1: ClpA6 (hexameric ClpA unfoldase, stabilised by ATPγS) (enzyme)
chain: MLNQELELSLNMAFARAREHRHEFMTVEHLLLALLSNPSAREALEACSVDLVALRQELEAFIEQTTPVLPASEEERDTQPTLSFQRVLQRAVFHVQSSGRNEVTGANVLVAIFSEQESQAAYLLRKHEVSRLDVVNFISHGTRKDEPTQSSDPGSQPNSEEQAGGEERMENFTTNLNQLARVGGIDPLIGREKELERAIQVLCRRRKNNPLLVGESGVGKTAIAEGLAWRIVQGDVPEVMADCTIYSLDIGSLLAGTKYRGDFEKRFKALLKQLEQDTNSILFIDEIHTIIGAGAASGGQVDAANLIKPLLSSGKIRVIGSTTYQEFSNIFEKDRALARRFQKIDITEPSIEETVQIINGLKPKYEAHHDVRYTAKAVRAAVELAVKYINDRHLPDKAIDVIDEAGARARLMPVSKRKKTVNVADIESVVARIARIPEKSVSQSDRDTLKNLGDRLKMLVFGQDKAIEALTEAIKMARAGLGHEHKPVGSFLFAGPTGVGKTEVTVQLSKALGIELLRFDMSEYMERHTVSRLIGAPPGYVGFDQGGLLTDAVIKHPHAVLLLDEIEKAHPDVFNILLQVMDNGTLTDNNGRKADFRNVVLVMTTNAGVRETERKSIGLIHQDNSTDAMEEIKKIFTPEFRNRLDNIIWFDHLSTDVIHQVVDKFIVELQVQLDQKGVSLEVSQEARNWLAEKGYDRAMGARPMARVIQDNLKKPLANELLFGSLVDGGQVTVALDKEKNELTYGFQSAQKHKAEAAH
fold reduction of affinity against ClpS*^F [3]: 10 fold

B2: *L13 ClpS with ClpA6 (complex, E. coli)
chain 1: MLNQELELSLNMAFARAREHRHEFMTVEHLLLALLSNPSAREALEACSVDLVALRQELEAFIEQTTPVLPASEEERDTQPTLSFQRVLQRAVFHVQSSGRNEVTGANVLVAIFSEQESQAAYLLRKHEVSRLDVVNFISHGTRKDEPTQSSDPGSQPNSEEQAGGEERMENFTTNLNQLARVGGIDPLIGREKELERAIQVLCRRRKNNPLLVGESGVGKTAIAEGLAWRIVQGDVPEVMADCTIYSLDIGSLLAGTKYRGDFEKRFKALLKQLEQDTNSILFIDEIHTIIGAGAASGGQVDAANLIKPLLSSGKIRVIGSTTYQEFSNIFEKDRALARRFQKIDITEPSIEETVQIINGLKPKYEAHHDVRYTAKAVRAAVELAVKYINDRHLPDKAIDVIDEAGARARLMPVSKRKKTVNVADIESVVARIARIPEKSVSQSDRDTLKNLGDRLKMLVFGQDKAIEALTEAIKMARAGLGHEHKPVGSFLFAGPTGVGKTEVTVQLSKALGIELLRFDMSEYMERHTVSRLIGAPPGYVGFDQGGLLTDAVIKHPHAVLLLDEIEKAHPDVFNILLQVMDNGTLTDNNGRKADFRNVVLVMTTNAGVRETERKSIGLIHQDNSTDAMEEIKKIFTPEFRNRLDNIIWFDHLSTDVIHQVVDKFIVELQVQLDQKGVSLEVSQEARNWLAEKGYDRAMGARPMARVIQDNLKKPLANELLFGSLVDGGQVTVALDKEKNELTYGFQSAQKHKAEAAH
chain 2: MLAEEKVRDALKPPSMYKVILVNDDYTPMEFVIDVLQKFFSYDVERATQLMLAVHYQGKAICGVFTAEVAETKVAMVNKYARENEHPLLCTLEKA
K2 (unimolecular engagement step, global fit) [4]: 0.74 | steady-state degradation kinetics, in words ([4]; YLFVQELA-GFP): roughly similar steady-state degradation kinetics | reduction in Vmax compared to ClpS, fold ([4]; YLFVQELA-GFP): 1.3 fold | delivery of N-end-rule substrate for ClpAP degradation ([4]; YLFVQELA-GFP, ClpS variants, in words): mediated efficient substrate degradation | Kd [5]: 100 nM

B3: *V18 ClpS with ClpA6 (complex, E. coli)
chain 1: MLNQELELSLNMAFARAREHRHEFMTVEHLLLALLSNPSAREALEACSVDLVALRQELEAFIEQTTPVLPASEEERDTQPTLSFQRVLQRAVFHVQSSGRNEVTGANVLVAIFSEQESQAAYLLRKHEVSRLDVVNFISHGTRKDEPTQSSDPGSQPNSEEQAGGEERMENFTTNLNQLARVGGIDPLIGREKELERAIQVLCRRRKNNPLLVGESGVGKTAIAEGLAWRIVQGDVPEVMADCTIYSLDIGSLLAGTKYRGDFEKRFKALLKQLEQDTNSILFIDEIHTIIGAGAASGGQVDAANLIKPLLSSGKIRVIGSTTYQEFSNIFEKDRALARRFQKIDITEPSIEETVQIINGLKPKYEAHHDVRYTAKAVRAAVELAVKYINDRHLPDKAIDVIDEAGARARLMPVSKRKKTVNVADIESVVARIARIPEKSVSQSDRDTLKNLGDRLKMLVFGQDKAIEALTEAIKMARAGLGHEHKPVGSFLFAGPTGVGKTEVTVQLSKALGIELLRFDMSEYMERHTVSRLIGAPPGYVGFDQGGLLTDAVIKHPHAVLLLDEIEKAHPDVFNILLQVMDNGTLTDNNGRKADFRNVVLVMTTNAGVRETERKSIGLIHQDNSTDAMEEIKKIFTPEFRNRLDNIIWFDHLSTDVIHQVVDKFIVELQVQLDQKGVSLEVSQEARNWLAEKGYDRAMGARPMARVIQDNLKKPLANELLFGSLVDGGQVTVALDKEKNELTYGFQSAQKHKAEAAH
chain 2: MVRDALKPPSMYKVILVNDDYTPMEFVIDVLQKFFSYDVERATQLMLAVHYQGKAICGVFTAEVAETKVAMVNKYARENEHPLLCTLEKA
Kd [5]: 83 nM

B4: *A14 ClpS with ClpA6 (complex, E. coli)
chain 1: MLNQELELSLNMAFARAREHRHEFMTVEHLLLALLSNPSAREALEACSVDLVALRQELEAFIEQTTPVLPASEEERDTQPTLSFQRVLQRAVFHVQSSGRNEVTGANVLVAIFSEQESQAAYLLRKHEVSRLDVVNFISHGTRKDEPTQSSDPGSQPNSEEQAGGEERMENFTTNLNQLARVGGIDPLIGREKELERAIQVLCRRRKNNPLLVGESGVGKTAIAEGLAWRIVQGDVPEVMADCTIYSLDIGSLLAGTKYRGDFEKRFKALLKQLEQDTNSILFIDEIHTIIGAGAASGGQVDAANLIKPLLSSGKIRVIGSTTYQEFSNIFEKDRALARRFQKIDITEPSIEETVQIINGLKPKYEAHHDVRYTAKAVRAAVELAVKYINDRHLPDKAIDVIDEAGARARLMPVSKRKKTVNVADIESVVARIARIPEKSVSQSDRDTLKNLGDRLKMLVFGQDKAIEALTEAIKMARAGLGHEHKPVGSFLFAGPTGVGKTEVTVQLSKALGIELLRFDMSEYMERHTVSRLIGAPPGYVGFDQGGLLTDAVIKHPHAVLLLDEIEKAHPDVFNILLQVMDNGTLTDNNGRKADFRNVVLVMTTNAGVRETERKSIGLIHQDNSTDAMEEIKKIFTPEFRNRLDNIIWFDHLSTDVIHQVVDKFIVELQVQLDQKGVSLEVSQEARNWLAEKGYDRAMGARPMARVIQDNLKKPLANELLFGSLVDGGQVTVALDKEKNELTYGFQSAQKHKAEAAH
chain 2: MAEEKVRDALKPPSMYKVILVNDDYTPMEFVIDVLQKFFSYDVERATQLMLAVHYQGKAICGVFTAEVAETKVAMVNKYARENEHPLLCTLEKA
K2 (unimolecular engagement step, global fit) [4]: 9.2 | steady-state degradation kinetics, in words ([4]; YLFVQELA-GFP): substantial decrease in Vmax | reduction in Vmax compared to ClpS, fold ([4]; YLFVQELA-GFP): 7.5 fold | Kd [5]: 130 nM

B5: ClpS*^F bound to the N-end-rule peptide LLYVQRDSKEC (complex, E. coli)
chain: MGKTNDWLDFDQLAEEKVRDALKPPSMYKVILVNDDYTPMEFVIDVLQKFFSYDVERATQLMLAVHYQGKAIVGVFTAEVAETKVAMVNKYARENCHPLLSTLEKA
peptide: LLYVQRDSKEC
modifications: fluorescein maleimide on the single cysteine
Kd [6]: < 20 nM and 20 nM

B6: ^H66AClpS*^F bound to the N-end-rule peptide LLYVQRDSKEC (complex, E. coli)
chain: MGKTNDWLDFDQLAEEKVRDALKPPSMYKVILVNDDYTPMEFVIDVLQKFFSYDVERATQLMLAVAYQGKAIVGVFTAEVAETKVAMVNKYARENCHPLLSTLEKA
peptide: LLYVQRDSKEC
modifications: fluorescein maleimide on the single cysteine
Kd [6]: 178 ± 4 nM

B7: ^H66AClpS*^F (natural protein, E. coli, UniProt P0A8Q6 1-106, looked up)
chain: MGKTNDWLDFDQLAEEKVRDALKPPSMYKVILVNDDYTPMEFVIDVLQKFFSYDVERATQLMLAVAYQGKAIVGVFTAEVAETKVAMVNKYARENCHPLLSTLEKA
modifications: fluorescein maleimide on the single cysteine
Kd [7]: 345 ± 3 nM
